For one molecule, Kd results are on record in PMC7907060, “Interaction of Plasmodium falciparum apicortin with α- and β-tubulin is critical for parasite growth and survival” (Scientific Reports, 2021).

The target of test [1] is T1, recombinant Plasmodium falciparum β-tubulin (Plasmodium falciparum, UniProt Q7KQL5 1-445).
T1 construct: Plasmodium falciparum β-tubulin, cloned in pET28a+; also called Pfβ-tubulin
The test can be described thus: SPR; apicortin (12 µM) immobilised by amine coupling on a gold sensor chip; tubulins 100 nM-1 µM injected, 500 s; PBS; Autolab ESPRIT. To be noted: both partners purified. In general terms: SPR reads the build-up and loss of mass on a sensor chip optically.

For test [2], the target named is T2, recombinant Plasmodium falciparum α-tubulin-I (Plasmodium falciparum, UniProt Q6ZLZ9 1-453).
T2 construct: Plasmodium falciparum α-tubulin-I, cloned in pET28a+; also called Pfα-tubulin-I
Described as above. Particulars: both partners purified.

B1: recombinant Plasmodium falciparum apicortin (natural protein, UniProt C0H4E4 1-238, looked up)
chain: MENFDEVIKEYQKYLEGKEKTHKINSCKHPCCEEDNLKSVKNYFKVYHKKYIPSIIQKKKKERNEHAPPLLKDIQDKRCTNVFERLNDKQFYTGVQKTKFMELLKNNKNKSSYCYNNIKVFSTMLKKPCNYVVTPGTLGIQKYGIQTGRPKTIFLFNNEKKYDKGVYFLVKSYIKNIKSLCYEITKILQPSIGPTRKIYDQNFSLVRNVNDLINGGKYLCTSGDPPAPIRNLSLHFLT
notes: Plasmodium falciparum apicortin, cloned in pET28a+; the His tag is surmised from pET28a+ and Ni-NTA; also called PfApicortin
By Kd is commonly meant a measure of binding affinity in units of concentration. For the molecule B1, the Kd in test [1] is 750 nM; in test [2], 120 nM.
